Reference: publication PMC4957052 (The Journal of Biological Chemistry, 2016)

What was measured:
[1] = biological target: the molecule itself; assay: SEC + other: sucrose density gradient centrifugation; analytical Superdex 200 at 4 °C in 20 mM Tris pH 8.0, 150 mM NaCl, 1 mM DTT, protein injected at 25-30 μM (25-50 μM in the results); 5-20% sucrose gradients, 200,000 x g 4 h 4 °C, protein loaded at ≥20 μM; molecular mass from Stokes radius and sedimentation coefficient
[2] = biological target: T1, M. musculus αE-catenin (M. musculus), P26231; assay: as above; details: remark: other sources report otherwise
T1 chain: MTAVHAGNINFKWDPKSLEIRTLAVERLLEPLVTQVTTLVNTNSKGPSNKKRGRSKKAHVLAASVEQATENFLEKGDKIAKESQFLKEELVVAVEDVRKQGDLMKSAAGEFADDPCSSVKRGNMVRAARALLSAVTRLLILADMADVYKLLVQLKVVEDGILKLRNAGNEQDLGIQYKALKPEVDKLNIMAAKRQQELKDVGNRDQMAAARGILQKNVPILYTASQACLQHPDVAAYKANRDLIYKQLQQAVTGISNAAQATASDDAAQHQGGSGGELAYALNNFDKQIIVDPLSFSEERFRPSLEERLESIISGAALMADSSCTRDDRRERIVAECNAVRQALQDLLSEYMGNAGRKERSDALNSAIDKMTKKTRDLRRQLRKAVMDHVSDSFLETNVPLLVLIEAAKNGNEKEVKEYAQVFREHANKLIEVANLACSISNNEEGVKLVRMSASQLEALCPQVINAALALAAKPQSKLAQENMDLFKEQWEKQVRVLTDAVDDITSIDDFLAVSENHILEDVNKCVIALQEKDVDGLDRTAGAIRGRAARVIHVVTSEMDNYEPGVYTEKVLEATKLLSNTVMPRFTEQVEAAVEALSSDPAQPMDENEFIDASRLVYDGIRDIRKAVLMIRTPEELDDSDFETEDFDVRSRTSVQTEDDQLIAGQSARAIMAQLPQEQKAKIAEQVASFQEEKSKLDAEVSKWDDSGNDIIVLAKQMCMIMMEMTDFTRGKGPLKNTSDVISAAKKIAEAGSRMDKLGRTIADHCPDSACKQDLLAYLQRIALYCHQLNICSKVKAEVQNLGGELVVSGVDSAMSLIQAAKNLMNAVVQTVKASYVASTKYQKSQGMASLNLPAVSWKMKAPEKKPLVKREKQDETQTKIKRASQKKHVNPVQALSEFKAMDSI

[3] = biological target: T2, mouse β-catenin (GST cleaved) (mouse, UniProt Q02248 1-781); assay: not stated; purified mouse β-catenin mixed with αT-catenin; data not shown; details: both partners purified
T2 construct: β-catenin, mouse; Probably the construct of m7 (full length) after TEV cleavage; source: E. coli BL21(DE3), purified (glutathione-agarose, TEV cleavage, Mono Q, S200 gel filtration)
T2 sequence (looked up): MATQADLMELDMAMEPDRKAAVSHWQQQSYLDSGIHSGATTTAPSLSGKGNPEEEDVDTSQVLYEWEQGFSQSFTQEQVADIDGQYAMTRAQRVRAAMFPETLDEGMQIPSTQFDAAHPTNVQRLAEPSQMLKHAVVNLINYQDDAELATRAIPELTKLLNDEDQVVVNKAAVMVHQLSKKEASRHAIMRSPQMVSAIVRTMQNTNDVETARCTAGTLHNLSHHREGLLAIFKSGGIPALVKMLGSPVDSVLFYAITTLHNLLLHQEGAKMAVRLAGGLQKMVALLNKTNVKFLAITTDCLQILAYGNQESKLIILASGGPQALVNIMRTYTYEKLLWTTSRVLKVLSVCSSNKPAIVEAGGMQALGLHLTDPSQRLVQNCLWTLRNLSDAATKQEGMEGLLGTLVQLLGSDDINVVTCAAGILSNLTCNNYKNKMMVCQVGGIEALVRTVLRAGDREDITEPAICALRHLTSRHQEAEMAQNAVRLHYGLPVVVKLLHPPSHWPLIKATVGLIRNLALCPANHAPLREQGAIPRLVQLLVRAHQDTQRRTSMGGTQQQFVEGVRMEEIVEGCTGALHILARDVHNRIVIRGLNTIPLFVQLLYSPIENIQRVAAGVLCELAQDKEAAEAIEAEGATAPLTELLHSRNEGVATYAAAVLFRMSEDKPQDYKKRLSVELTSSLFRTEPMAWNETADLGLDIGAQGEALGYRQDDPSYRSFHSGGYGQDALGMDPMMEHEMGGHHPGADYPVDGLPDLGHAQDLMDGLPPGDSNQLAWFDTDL

B1: αT-catenin V94D ΔABD (aa 1-659) (domain or fragment, M. musculus, UniProt Q65CL1 1-659, looked up)
chain: MSAETPITLNMDTQDLQIQTFTVEKLLEPLIIQVTTLVNCPQNPSNRKKGRSKRARVLLASVEEATWNLLDKGEMIAKEATVLKEELAAALQEDRKESKALKVSAERFTDDPCYLPKREAVVQAARALLAAVTRLLVLADMIDVMCLLQHVSSFQRTFESLKNVSNKSDLQRTYQKLGKELESLDYLAFKRQQDLKSPSQRDEIAGARATLKENSPLLHSICSACLEHSDVASLKASKDTVCEEIQNALDVISNASQGIQNAPAPPEPQAATLGSAFDELENLIVLNPLTVTEEDVRPSLEKRLEAIISGAALLADSSCTRDLHRERIIAECNAIRQALQDLLTEYMSNTGKTERSNTLNTAIVNMSKKTRDLRRQLRKAIIDHISDSFLDTTVPLLVLIEAAKNGRVKEIKDYAAIFHEHTGRLVEVANLACSMSTNEDGIKIVRIAANHLETLCPQIINAALALASRPKSQVVKNTMEMYKRTWEHYIHVLTEAVDDITSIDDFLAVSESHILEDVNKCIIALRDQDADNLDRAAGAIRGRAARVAHIVAGEMDSYEPGAYTEGVMRNVNFLTSTVIPEFVTQVNVALDALSKNSLTALDDNQFVDISKKIYDTIHDIRCSVMMIRTPEELEDVSDLEDDHEVRSHTSIQTEGKTDR
notes: αT-catenin, Mus musculus, N-terminal head region aa 1-659 (ABD aa 660-895 deleted) with V94D; source: E. coli BL21(DE3), purified (glutathione-agarose, TEV cleavage, Mono Q, S200 gel filtration)
stoichiometry N [1]: 2

B2: M. musculus αE-catenin, P26231 1-906 (natural protein)
chain: MTAVHAGNINFKWDPKSLEIRTLAVERLLEPLVTQVTTLVNTNSKGPSNKKRGRSKKAHVLAASVEQATENFLEKGDKIAKESQFLKEELVVAVEDVRKQGDLMKSAAGEFADDPCSSVKRGNMVRAARALLSAVTRLLILADMADVYKLLVQLKVVEDGILKLRNAGNEQDLGIQYKALKPEVDKLNIMAAKRQQELKDVGNRDQMAAARGILQKNVPILYTASQACLQHPDVAAYKANRDLIYKQLQQAVTGISNAAQATASDDAAQHQGGSGGELAYALNNFDKQIIVDPLSFSEERFRPSLEERLESIISGAALMADSSCTRDDRRERIVAECNAVRQALQDLLSEYMGNAGRKERSDALNSAIDKMTKKTRDLRRQLRKAVMDHVSDSFLETNVPLLVLIEAAKNGNEKEVKEYAQVFREHANKLIEVANLACSISNNEEGVKLVRMSASQLEALCPQVINAALALAAKPQSKLAQENMDLFKEQWEKQVRVLTDAVDDITSIDDFLAVSENHILEDVNKCVIALQEKDVDGLDRTAGAIRGRAARVIHVVTSEMDNYEPGVYTEKVLEATKLLSNTVMPRFTEQVEAAVEALSSDPAQPMDENEFIDASRLVYDGIRDIRKAVLMIRTPEELDDSDFETEDFDVRSRTSVQTEDDQLIAGQSARAIMAQLPQEQKAKIAEQVASFQEEKSKLDAEVSKWDDSGNDIIVLAKQMCMIMMEMTDFTRGKGPLKNTSDVISAAKKIAEAGSRMDKLGRTIADHCPDSACKQDLLAYLQRIALYCHQLNICSKVKAEVQNLGGELVVSGVDSAMSLIQAAKNLMNAVVQTVKASYVASTKYQKSQGMASLNLPAVSWKMKAPEKKPLVKREKQDETQTKIKRASQKKHVNPVQALSEFKAMDSI
stoichiometry N [2]: 2

B3: M. musculus αT-catenin (wild type, full length) (natural protein, UniProt Q65CL1 1-895, looked up)
chain: MSAETPITLNMDTQDLQIQTFTVEKLLEPLIIQVTTLVNCPQNPSNRKKGRSKRARVLLASVEEATWNLLDKGEMIAKEATVLKEELAAALQEVRKESKALKVSAERFTDDPCYLPKREAVVQAARALLAAVTRLLVLADMIDVMCLLQHVSSFQRTFESLKNVSNKSDLQRTYQKLGKELESLDYLAFKRQQDLKSPSQRDEIAGARATLKENSPLLHSICSACLEHSDVASLKASKDTVCEEIQNALDVISNASQGIQNAPAPPEPQAATLGSAFDELENLIVLNPLTVTEEDVRPSLEKRLEAIISGAALLADSSCTRDLHRERIIAECNAIRQALQDLLTEYMSNTGKTERSNTLNTAIVNMSKKTRDLRRQLRKAIIDHISDSFLDTTVPLLVLIEAAKNGRVKEIKDYAAIFHEHTGRLVEVANLACSMSTNEDGIKIVRIAANHLETLCPQIINAALALASRPKSQVVKNTMEMYKRTWEHYIHVLTEAVDDITSIDDFLAVSESHILEDVNKCIIALRDQDADNLDRAAGAIRGRAARVAHIVAGEMDSYEPGAYTEGVMRNVNFLTSTVIPEFVTQVNVALDALSKNSLTALDDNQFVDISKKIYDTIHDIRCSVMMIRTPEELEDVSDLEDDHEVRSHTSIQTEGKTDRAKMTQLPEAEKEKIAEQVADFKKVKSKLDAEIEIWDDTSNDIIVLAKKMCMIMMEMTDFTRGKGPLKHTTDVIYAAKMISESGSRMDVLARQIANQCPDPPCKQDLLAYLEQIKFYSHQLKICSQVKAEIQNLGGELIVSALDSVTSLIQAAKNLMNAVVQTVKMSYIASTKIIRIQSSAGPRHPVVMWRMKAPAKKPLIKREKPEETWAAVRRGSAKKKIHPVQVMSEFRGRQVY
notes: Cloned into pGEX-TEV; cleaved from GST with tobacco etch virus protease; also called αT (testes)-catenin; WT αT-catenin; source: E. coli BL21(DE3), purified (glutathione-agarose, TEV cleavage, Mono Q, S200 gel filtration)
stoichiometry N [3]: 1

B4: M. musculus αT-catenin V94D (full length) (natural protein, UniProt Q65CL1 1-895, looked up)
chain: MSAETPITLNMDTQDLQIQTFTVEKLLEPLIIQVTTLVNCPQNPSNRKKGRSKRARVLLASVEEATWNLLDKGEMIAKEATVLKEELAAALQEDRKESKALKVSAERFTDDPCYLPKREAVVQAARALLAAVTRLLVLADMIDVMCLLQHVSSFQRTFESLKNVSNKSDLQRTYQKLGKELESLDYLAFKRQQDLKSPSQRDEIAGARATLKENSPLLHSICSACLEHSDVASLKASKDTVCEEIQNALDVISNASQGIQNAPAPPEPQAATLGSAFDELENLIVLNPLTVTEEDVRPSLEKRLEAIISGAALLADSSCTRDLHRERIIAECNAIRQALQDLLTEYMSNTGKTERSNTLNTAIVNMSKKTRDLRRQLRKAIIDHISDSFLDTTVPLLVLIEAAKNGRVKEIKDYAAIFHEHTGRLVEVANLACSMSTNEDGIKIVRIAANHLETLCPQIINAALALASRPKSQVVKNTMEMYKRTWEHYIHVLTEAVDDITSIDDFLAVSESHILEDVNKCIIALRDQDADNLDRAAGAIRGRAARVAHIVAGEMDSYEPGAYTEGVMRNVNFLTSTVIPEFVTQVNVALDALSKNSLTALDDNQFVDISKKIYDTIHDIRCSVMMIRTPEELEDVSDLEDDHEVRSHTSIQTEGKTDRAKMTQLPEAEKEKIAEQVADFKKVKSKLDAEIEIWDDTSNDIIVLAKKMCMIMMEMTDFTRGKGPLKHTTDVIYAAKMISESGSRMDVLARQIANQCPDPPCKQDLLAYLEQIKFYSHQLKICSQVKAEIQNLGGELIVSALDSVTSLIQAAKNLMNAVVQTVKMSYIASTKIIRIQSSAGPRHPVVMWRMKAPAKKPLIKREKPEETWAAVRRGSAKKKIHPVQVMSEFRGRQVY
notes: αT-catenin, Mus musculus, full length, with the ARVC-linked V94D change made by site-directed mutagenesis; here it was put into the mouse protein; also called V94D mutant; V94D homodimer; source: E. coli BL21(DE3), purified (glutathione-agarose, TEV cleavage, Mono Q, S200 gel filtration)
stoichiometry N [1]: 2
